One block for each molecule: values may come before it.
What was measured:
Assay in all cases: fluorescence polarisation; FlAsH-EDT2-labelled SCC1 fragment as probe, inactive separase added; 25 mM Hepes (pH 8.0), 100 mM NaCl, bovine serum albumin (0.1 mg/ml), 0.01% NP-40; room temperature (25°C); One Site-Total nonlinear fit
[1] = target: MBP-SCC1^100–320 with C-terminal tetracysteine motif, unphosphorylated (human) (UniProt O60216)
[2] = target: phosphorylated SCC1 site 1 (100 to 320) (human) (UniProt O60216)
[3] = target: T1, inactive apo-separase (separase^C2029S) (human, UniProt Q14674 1-2120, C2029S); settings: both partners purified
T1 construct: human separase (2120 amino acids), amino acids 1 to 2120, catalytic cysteine replaced with serine; Gene-optimised synthetic cDNA in the pF1 vector; also called apo-separase^C2029S; source: Sf9 (baculovirus), purified (Strep-Tactin, heparin, Superose 6)
T1 sequence (Q14674 whole entry C2029S, the tested form may be a part): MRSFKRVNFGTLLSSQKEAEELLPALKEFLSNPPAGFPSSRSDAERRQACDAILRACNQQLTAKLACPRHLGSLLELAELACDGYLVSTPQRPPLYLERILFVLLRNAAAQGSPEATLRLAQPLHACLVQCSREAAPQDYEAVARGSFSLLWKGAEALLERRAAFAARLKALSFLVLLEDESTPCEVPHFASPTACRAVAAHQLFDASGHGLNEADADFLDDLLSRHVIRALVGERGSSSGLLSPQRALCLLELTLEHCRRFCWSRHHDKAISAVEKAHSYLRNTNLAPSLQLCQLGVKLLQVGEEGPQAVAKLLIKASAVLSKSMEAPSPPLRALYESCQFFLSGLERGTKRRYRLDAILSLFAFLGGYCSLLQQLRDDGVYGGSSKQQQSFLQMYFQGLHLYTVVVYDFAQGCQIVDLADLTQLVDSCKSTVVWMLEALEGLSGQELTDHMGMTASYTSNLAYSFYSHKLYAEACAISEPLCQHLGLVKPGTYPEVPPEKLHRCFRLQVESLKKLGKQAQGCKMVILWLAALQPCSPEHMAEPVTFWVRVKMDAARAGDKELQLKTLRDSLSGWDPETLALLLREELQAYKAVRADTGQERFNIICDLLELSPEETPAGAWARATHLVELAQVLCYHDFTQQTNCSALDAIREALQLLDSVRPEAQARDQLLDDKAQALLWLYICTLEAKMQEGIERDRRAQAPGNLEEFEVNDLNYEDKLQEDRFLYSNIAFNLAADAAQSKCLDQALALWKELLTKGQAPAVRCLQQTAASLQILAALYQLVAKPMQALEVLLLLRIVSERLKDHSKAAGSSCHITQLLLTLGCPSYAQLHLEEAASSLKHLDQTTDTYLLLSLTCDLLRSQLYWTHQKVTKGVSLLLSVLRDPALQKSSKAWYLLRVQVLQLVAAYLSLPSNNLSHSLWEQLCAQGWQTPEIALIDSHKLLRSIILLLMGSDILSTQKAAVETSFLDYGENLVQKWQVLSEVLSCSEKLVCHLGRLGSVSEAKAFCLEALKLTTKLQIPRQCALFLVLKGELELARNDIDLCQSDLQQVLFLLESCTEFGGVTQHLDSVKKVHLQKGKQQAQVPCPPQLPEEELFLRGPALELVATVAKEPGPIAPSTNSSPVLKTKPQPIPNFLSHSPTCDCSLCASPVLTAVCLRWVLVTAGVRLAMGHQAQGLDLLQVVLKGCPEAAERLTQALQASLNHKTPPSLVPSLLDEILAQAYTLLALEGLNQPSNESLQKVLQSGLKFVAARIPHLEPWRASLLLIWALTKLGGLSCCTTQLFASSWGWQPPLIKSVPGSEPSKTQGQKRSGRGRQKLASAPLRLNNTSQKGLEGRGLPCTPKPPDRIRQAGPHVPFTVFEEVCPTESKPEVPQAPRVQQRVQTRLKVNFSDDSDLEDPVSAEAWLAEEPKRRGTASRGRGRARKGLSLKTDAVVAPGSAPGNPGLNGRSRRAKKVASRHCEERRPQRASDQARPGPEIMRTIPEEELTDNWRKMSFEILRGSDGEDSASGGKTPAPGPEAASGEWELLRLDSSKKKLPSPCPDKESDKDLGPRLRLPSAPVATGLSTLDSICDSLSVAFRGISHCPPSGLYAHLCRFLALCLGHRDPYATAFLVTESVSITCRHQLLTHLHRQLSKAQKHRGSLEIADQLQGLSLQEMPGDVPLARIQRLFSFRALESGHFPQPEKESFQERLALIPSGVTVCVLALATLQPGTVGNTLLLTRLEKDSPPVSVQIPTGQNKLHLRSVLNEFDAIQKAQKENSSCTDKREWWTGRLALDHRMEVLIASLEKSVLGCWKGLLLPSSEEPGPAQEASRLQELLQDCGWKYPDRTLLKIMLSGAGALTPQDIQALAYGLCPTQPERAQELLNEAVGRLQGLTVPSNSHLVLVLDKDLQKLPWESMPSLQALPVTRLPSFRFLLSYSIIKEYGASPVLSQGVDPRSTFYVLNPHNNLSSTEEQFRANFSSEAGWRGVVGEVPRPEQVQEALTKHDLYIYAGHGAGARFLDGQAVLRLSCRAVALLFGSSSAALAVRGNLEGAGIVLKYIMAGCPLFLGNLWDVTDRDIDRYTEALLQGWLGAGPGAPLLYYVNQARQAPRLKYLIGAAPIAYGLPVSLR

Sequence of MBP-SCC1^100–320 with C-terminal tetracysteine motif, unphosphorylated (human) (O60216 100-320): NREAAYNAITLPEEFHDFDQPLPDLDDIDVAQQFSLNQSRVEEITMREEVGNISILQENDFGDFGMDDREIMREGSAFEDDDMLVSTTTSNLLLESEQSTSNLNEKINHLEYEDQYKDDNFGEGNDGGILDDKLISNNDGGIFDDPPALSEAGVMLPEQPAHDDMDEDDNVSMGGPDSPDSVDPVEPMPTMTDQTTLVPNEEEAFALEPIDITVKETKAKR
Sequence of phosphorylated SCC1 site 1 (100 to 320) (human) (O60216 100-320): as above

fold lower Kd than the SCC1 350-550 construct [1]: 3 fold
fold lower Kd than unphosphorylated SCC1 100-320 [2]: 2 fold
Molecule: inactive apo-separase (separase^C2029S), Q14674 1-2120

binding result [3]: binds
B1: MBP-SCC1^350–550 with C-terminal tetracysteine motif, unphosphorylated (domain or fragment, human, UniProt O60216 350-550, looked up)
chain: TLDLAPPTKKLMMWKETGGVEKLFSLPAQPLWNNRLLKLFTRCLTPLVPEDLRKRRKGGEADNLDEFLKEFENPEVPREDQQQQHQQRDVIDEPIIEEPSRLQESVMEASRTNIDESAMPPPPPQGVKRKAGQIDPEPVMPPQQVEQMEIPPVELPPEEPPNICQLIPELELLPEKEKEKEKEKEDDEEEEDEDASGGDQD
modifications: FlAsH-EDT2 fluorescent dye on the C-terminal tetracysteine motif
notes: human SCC1/RAD21, amino acids 350 to 550 (holds cleavage site 2, R427); pETM41 vector; also called SCC1 site 2 (amino acids 350 to 550); source: E. coli BL21, purified (HiTrap MBP, Superdex 200); not shown: 6xHis-MBP, N-terminal, kept
